Here are results for six molecules from paper doi:10.1101/2021.10.05.463282 (2021).

Sequences and labels used below:
B1: B8-mIgA1 (antibody, V domains shown)
VH: EVQLVQSGAEVKKPGSSVKVSCKASGGTFSNYGISWVRQAPGQGLEWMGRILPTFGTANSAQKFQGRVTITADESTGTAYMELRSLRSEDTAVYYCAKEGLAFLGYGMDVWGQGTTVTVSS
VL: EIVLTQSPGTLSLSPGERATLSCRASQSVSSYLAWYQQKPGQAPRLLIYDASNRATGIPARFIGSGSGTDFTLTISSLEPEDFAVYFCQQRSNWPLTFGGGTKVEIK
B2: B8-mIgA2 (antibody, V domains shown)
VH: B1 VH
VL: B1 VL
B3: B8-IgG1 (antibody, V domains shown)
VH: B1 VH
VL: B1 VL
B4: B8-dIgA2 (antibody, V domains shown)
VH: B1 VH
VL: B1 VL
B5: B8-dIgA1 (antibody, V domains shown)
VH: B1 VH
VL: B1 VL
B6: B8 Fab (Fab, V domains shown)
VH: B1 VH
VL: B1 VL

One test addresses recombinant trimeric spike protein derived from SARS-CoV-2 (Sino Biological) (SARS-CoV-2, ancestral (Wuhan-Hu-1) …, UniProt P0DTC2). Nature of the test: ELISA. A general note: In an ELISA, binding on a coated surface is turned into a signal by an enzyme label.
In the case of B1, the binding result is listed as “binds”.
Regarding B2, the binding result is on record as “binds”.
In the case of B3, the binding result is reported as “binds”.
The same measure, in the same setting: under B4 stands “binds”; under B5, “binds”.

Another test deals with SARS-CoV-2 spike ectodomain trimer (SARS-CoV-2, ancestral (Wuhan-Hu-1) …, UniProt P0DTC2). Nature of the test: cryo-EM structure.
Consider B6, for which the binding result is reported as “binds”.
